Here are results for 4 molecules from US20140056903A1 (Regeneron, published 2014).

The target in assay [1] is T1, human GFRα3 expressed with a C-terminal myc-myc-hexahistidine tag (human, UniProt O60609 32-374, biotinylated (sites not given) in ELISA format 2 and in the Octet cross-competition; not in SPR).
T1 construct: also called hGFRα3-mmh; hGFRα3-mmH
The assay is described as follows: SPR, Ab captured, 25C. How it is done: (§1) Antibodies were tested for binding to human GFRα3 expressed with either a C-terminal myc-myc-hexahistidine tag (hGFRα3-mmh; SEQ ID: 370, a C-terminal hFc tag (hGFRα3-hFc; SEQ ID:371), or a C-terminal mFc tag (hGFRα3-mFc; SEQ ID:372), as well as monkey GFRα3 expressed with a C-terminal myc-myc-hexahistidine tag (MfGFRα3-mmh; SEQ ID:373). Anti-GFRα3 antibodies were captured on either a goat anti-mouse IgG polyclonal antibody (GE Healthcare, #BR-1008-38) or a mouse anti-human IgG monoclonal antibody (GE Healthcare, #BR-1008-39) surface created through direct amine coupling to a Biacore CM5 sensor chip. Kinetic experiments were carried out using HBS-EP (10 mM HEPES, 150 mM NaCl, 3 mM EDTA, 0.05% Surfactant P20, at pH 7.4) or PBS buffer containing 0.05% v/v surfactant P20 as both the running buffer and the sample buffer. Binding to human GFRα3-mmh or monkey GFRα3-mmh was evaluated by injecting several concentrations ranging from 200 to 7.4 nM (3-fold dilutions) across the captured antibody surface. Binding to human GFRα3-mFc or human GFRα3-hFc was evaluated by injecting several concentrations ranging from 100 to 3.7 nM (3-fold dilutions) across the captured antibody surface. Antibody-antigen association was monitored for up to 4 minutes, while dissociation in buffer was monitored for up to 20 minutes. Kinetic association (kₐ) and dissociation (kd) rate constants were determined by processing and fitting the data to a 1:1 binding model using Scrubber 2.0c curve fitting software. Binding dissociation equilibrium constants (KD) and dissociative half-lives (t_{1/2}) were calculated from the kinetic rate constants as: KD (M)=kd/kₐ and t_{1/2} (min)=[ln 2/(60*kd)].
Background: Surface plasmon resonance follows binding to a sensor surface in real time, without labels.

Assay [2] deals with T2, human GFRα3 expressed with a C-terminal mFc tag (human).
T2 construct: also called hGFRα3-mFc
T2 chain: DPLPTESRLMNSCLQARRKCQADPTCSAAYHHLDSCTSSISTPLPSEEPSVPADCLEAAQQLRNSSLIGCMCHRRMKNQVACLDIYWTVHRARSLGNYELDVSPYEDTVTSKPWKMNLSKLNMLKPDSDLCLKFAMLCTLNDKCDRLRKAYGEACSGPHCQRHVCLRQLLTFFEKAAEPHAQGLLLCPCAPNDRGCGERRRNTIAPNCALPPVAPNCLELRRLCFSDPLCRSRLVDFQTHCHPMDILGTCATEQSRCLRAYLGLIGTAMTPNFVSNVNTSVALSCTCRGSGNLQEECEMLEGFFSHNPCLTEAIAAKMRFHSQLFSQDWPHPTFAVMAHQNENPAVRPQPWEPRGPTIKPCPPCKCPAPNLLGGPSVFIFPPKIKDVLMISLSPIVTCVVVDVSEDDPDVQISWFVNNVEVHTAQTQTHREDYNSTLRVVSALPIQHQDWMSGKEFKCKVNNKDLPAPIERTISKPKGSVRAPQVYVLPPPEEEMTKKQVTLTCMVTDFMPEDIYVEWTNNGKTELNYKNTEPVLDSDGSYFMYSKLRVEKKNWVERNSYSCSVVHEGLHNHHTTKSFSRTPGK
Briefly: SPR, Ab captured, 25C. How it is done: as §1

The target of assay [3] is T1, human GFRα3 expressed with a C-terminal …. The assay is described as follows: Octet cross-competition; biotin-hGFRα3-mmH pre-saturated with first antibody H4H2294S. How it is done:
(§2) A cross-competition assay was conducted to assess the ability of select antibodies to compete with one another for binding to human GFRα3 using an Octet RED384 biosensor (Fortebio Inc.). The entire experiment was performed at 25° C. with the flow rate of 1000 rpm in Octet HBST buffer (0.01 M HEPES pH7.4, 0.15M NaCl, 3 mM EDTA, 0.05% v/v Surfactant P20, 0.1 mg/mL BSA). To assess whether 2 antibodies were able to compete with one another for binding to their respective epitopes on biotinylated recombinant human GFRα3 expressed with a C-terminal myc-myc-hexahistidine tag (biotin-hGFRα3-mmH; SEQ ID:370), around ˜1.2 nm of biotin-hGFRα3-mmH was first captured onto streptavidin-coated Octet sensor tips (Fortebio Inc, #18-5019) by submerging the tips for 1 minute into a 10 μg/mL solution of biotin-hGFRα3-mmH. The antigen coated sensor tips were then placed into wells containing 25 μg/mL solution of a first anti-GFRα3 monoclonal antibody for 4 minutes to saturate the biotin-hGFRα3-mmH surface. The sensor tips were then subsequently dipped into wells containing 25 μ/mL solution of a second anti-GFRα3 monoclonal antibody. The sensor tips were washed in Octet HBST buffer in between every step of the experiment. The real-time binding response was monitored during the course of the experiment and the binding response at the end of every step was recorded as shown in FIG. 9. The response of mAb-2 binding to biotin-hGFRα3-mmH pre-complexed with the first antibody was compared and competitive/non-competitive behavior of different anti-GFRα3 monoclonal antibodies was determined.
In general terms: Biolayer interferometry detects binding as a change in optical thickness at a sensor tip.

Assay [4] shares this target. The assay is described as follows: Octet cross-competition; biotin-hGFRα3-mmH pre-saturated with first antibody H4H2342P. How it is done:
as §2

The target is the same in assay [5]. Briefly: Octet cross-competition; biotin-hGFRα3-mmH pre-saturated with first antibody H4H2355S. The procedure: as §2
Assay [6] shares this target. The assay is described as follows: Octet cross-competition; biotin-hGFRα3-mmH pre-saturated with first antibody H4H2357S. How it is done: as §2
Assay [7] has the same target. The assay is described as follows: Octet cross-competition; biotin-hGFRα3-mmH pre-saturated with first antibody H4H2236N3. The procedure:
as §2

T1 sequence (O60609 other isoform, or with tags, fused parts or gaps limits assumed): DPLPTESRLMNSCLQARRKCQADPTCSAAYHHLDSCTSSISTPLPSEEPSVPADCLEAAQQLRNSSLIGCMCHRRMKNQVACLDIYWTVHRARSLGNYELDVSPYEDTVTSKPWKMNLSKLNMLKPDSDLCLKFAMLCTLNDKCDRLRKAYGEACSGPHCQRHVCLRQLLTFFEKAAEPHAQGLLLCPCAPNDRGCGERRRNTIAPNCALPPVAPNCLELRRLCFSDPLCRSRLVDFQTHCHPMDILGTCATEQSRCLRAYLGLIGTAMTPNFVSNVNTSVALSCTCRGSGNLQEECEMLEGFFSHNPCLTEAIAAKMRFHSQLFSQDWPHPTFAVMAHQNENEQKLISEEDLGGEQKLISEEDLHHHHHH

B1: H4H2291S (antibody, human IgG4, V domains shown)
VH: EVQLVESGGGLVQPGESLRLSCAASGFTFSNYAMSWVRQAPGKGLEWVSVISGSGGSTYYADSVKGRFTMSRDNSKNTLYLQMNSLRAEDTAVYYCAKPPSRAARYFNYGMDVWGQGTTVTVSS
VL: AIRMTQSPSSVSASVGDRVTITCRASQGISSWLAWYQQKPGKAPKLLIYAASSLQSGVPSRFSGSGSGTDFTLTISSLQPEDFATYYCQQANSFPFTFGGGTKVEIK
notes: human IgG4 Fc (H4H)
The Kd is the free concentration of one partner at which half of the binding sites on the other are occupied at equilibrium, for simple one-to-one binding. For orientation: koff means the first-order rate constant of dissociation. Read a low koff as slow dissociation. Broadly, the kon is a measure of how fast the partners come together. Regarding B1, the Kd in assay [1] came to 0.393 nM; in assay [2], 0.00463 nM. In addition, the koff in assay [1] turned out to be 0.000164 s⁻¹; in assay [2], 4.78e-06 s⁻¹. Moreover, the kon in assay [1] came to 418000 M⁻¹ s⁻¹; in assay [2], 1.03e+06 M⁻¹ s⁻¹. Moreover, the t1/2 is 1.17 h in assay [1] and 40.3 h in assay [2]. The “binding response of second antibody (nm)” value came to 0.12 nm in assay [3]; 0.45 nm in assay [4]; 0.31 nm in assay [5]; 0.18 nm in assay [6]; 0.06 nm in assay [7].

B2: H4H2295S (antibody, human IgG4, V domains shown)
VH: EVQLVESGGGLVQAGGSLRLSCVASGFTFSSYAMSWVRQAPGKGLEWVSAISGSGGSTYSADSVKGRFTISRDNSKNTLYLQMNSLRAEDTAVYYCTKPSSYSSSNFYYGMDVWGQGTTVTVSS
VL: DIQMTQSPSSVSASVGDRVTITCRASQGISSWLAWYQQKPGKAPKLLIYTASSLQSGVPSRFSGSGSRTDFTLTISSLQPEDFATYYCQQTNSLPLTFGPGTKVEIK
notes: human IgG4 Fc (H4H)
As to B2, the Kd in assay [1] was 0.54 nM; in assay [2], 0.00157 nM. Also, the koff stood at 0.000256 s⁻¹ in assay [1] and 1.69e-06 s⁻¹ in assay [2]. Further, the kon is 475000 M⁻¹ s⁻¹ in assay [1] and 1.08e+06 M⁻¹ s⁻¹ in assay [2]. Besides, the t1/2 in assay [1] was found to be 0.75 h; in assay [2], 114 h. For the same molecule, the “binding response of second antibody (nm)” value in assay [3] is 0.04 nm; in assay [4], 0.31 nm; in assay [5], 0.2 nm; in assay [6], 0.12 nm; in assay [7], 0.03 nm.

B3: H4H2236N3 (antibody, human IgG4, V domains shown)
VH: EVQLLESGGNLVQPGGSLRLSCAASGFTFSSYAMTWVRQAPGKGLEWVSTISGSGTSTYYADSVKGRFTISRDNSRDTVFLQMNSLRAEDTAVYYCSKPSALRFLHWLAMDVWGQGTLVTVSS
VL: DIQMTQSPSSLSAFVGDRVTITCRASQDIRNYLDWFQQKPGKAPKSLIYAASNLQSGVPSRFGGSGSGTDFTLTINSLQPEDFVTYYCQQYNSYPPTFGGGTKVEIK
notes: human IgG4 Fc (H4H)
As for B3, the equilibrium dissociation constant (Kd) in assay [1] came out at 0.253 nM. This molecule also had a koff in assay [1] of 0.000233 s⁻¹. Also, the kon in assay [1] worked out at 922000 M⁻¹ s⁻¹. In addition, in assay [1], the t1/2 was found to be 0.833 h. The “binding response of second antibody (nm)” value in assay [3] was determined as 0.05 nm; in assay [4], 0.2 nm; in assay [5], 0.18 nm; in assay [6], 0.04 nm; in assay [7] it was 0 nm.

B4: H4H2243N2 (antibody, human IgG4, V domains shown)
VH: QVQLVQSGAEVKKPGASVKVSCKASGYTFTSYGIIWVRQAPGQGLEWMGWISGYNGNTNYAQNLQGRVTMTTDTSTTTAYMELRSLRSDDTAVYYCARWGIATRPYYYYGMDVWGQGTTVTVSS
VL: DIQMTQSPSSLSASVGDRVTITCRASQDITNYLAWFQQKPGKAPKSLIYAASSLQSGVPSKFSGSGSGTDFTLTISSLQPEDFATYYCQQYNSYPPTFGPGTKVDIK
notes: human IgG4 Fc (H4H)
Regarding B4, the affinity in assay [1], expressed as Kd, was 2.92 nM. This molecule gave a koff in assay [1] of 0.00078 s⁻¹. The molecule further registered a kon in assay [1] of 267000 M⁻¹ s⁻¹. In assay [1], this molecule showed a t1/2 of 0.25 h. Further, the “binding response of second antibody (nm)” value in assay [3] was 0.03 nm; in assay [4], 0.11 nm; in assay [5], 0.09 nm; in assay [6], 0.01 nm; in assay [7] it was 0.02 nm.
